This is an account of results in a protein production outcome set (Wang et al. 2014).
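Further: failed if final PepcDB status was selected cloned or expressed and not failed if soluble or beyond.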

This series is described as follows: label from the status in PepcDB records.
As for “MITFRKRVEIEADPAEVFRVISDPWRITEFWKGTRQVIEDGDFYRIRFAFPAWGLMSFHPDAERMTVLTSYLKGPVRGSKVDAVLVSSGKTVLQTEWNVRLSFYLRPFERRIASHFESGADHAINRIKESVEKDKK”, the protein production entry is “failed”.

Turning to “MITHISPAGSMDLLSQLEVERLKKTASSDLYQLYRNCTLAVLNSGSHTDNSKELLDKHQSFDVNVVRRERGIKLELTDPPEHAFVDGEIIKGIQEHLFSVLRDIVYVNMHLADSQRLNLTNPTHITNLVFGILRNAGALTPGIEPNLVVCWGGHSINGVEYQYTREVGNELGLRELNICTGCGPGAMEGPMKGAAIGHAKQRYTEQRYLGLTEPSIIAA”, the protein production entry is “failed”.

Regarding “MITIITLLLVVLISAIIVRIGAVALEMTGLSRDVAAFQAQSAFSGVGFTTSESEYVVSHPVRRRIIRILMLLGSAGVTSAIATLVLSFVGTTKEEAGYRMVVLLIGLLALYLFFRSKFIERVMRKAIKKGLSRLAPSLRVIDYSQLLGITRGYSIVQIKVKRRSWLADKTLRDLQLDKEGVLVLGIYRKVNGRRVYLGAPHGSTKVLPGDELILYGPEDVLMSLSKRLKGAKGEKEHVEAMEMAKARRVQEEREAGISV”, the protein production entry is given as “failed”.

Regarding “MITLKQALSLSQDELETLKNEIDAKVRASDLNAYIKAPSLNGASAKGVPILIKDNISVKGWEITCSSKILEGYVAPYHASVMENLHQNSMAGFGLSNMDEFAMGSTTESSCYGITKNPRDKNRVPGGSSGGSAAAVAGGLAVAALGSDTGGSIRQPASYCGCVGLKPTYGRVSRYGLIAYCSSFDQIGPITQNVEDASILFDAISGYDSKDSTSANLKPTQTFKNLNRDKRFKIAVLMDHIKDASNEVQLAYENTLKALKEMGHEIVEKKMLDSHYQISIYYIISMAEASSNLARFDGVRYGRRAQNIKDLKELYLKSRSEGFGDEVKRRIMLGNFVLSSGYYDAYYLKAQQMRLIIKEQYNKIFEEVDLIFTPVAPTSAHLFNYHASPLEMYLSDIYTIGANLSGLPALSLPVAKDPLGLPIGMQFIAKAFDEQSLLDVSYALEQELDLKLD”, the protein production result was “failed”.

For the sequence “MITRTIRGILKGAAVFLGLAGAIALLHAFGLDSTLDTAWIDSHIRDHGLQGHLLYIGIAGVLTALAVPRQFVSFLGGYAFGAAFGTLWATVGATLGCMLTFFYARFAGQSLVNRRFSHRVARVNAFLSRNPFTMTFIIRCLPVGNNVLTNLIAGVSSIPAVQFFAGSFIGYIPQHFIFALLGSGVHVSPVLRTVTSALLFVLSSVFGYMLYRRYRIDRDLEEPDDQ”, the protein production entry is reported as “failed”.

Regarding “MITTRTARQCGQADYGWLQARYTFSFGHYFDPKLLGYASLRVLNQEVLAPGAAFQPRTYPKVDILNVILDGEAEYRDSEGNHVQASAGEALLLSTQPGVSYSEHNLSKDKPLTRMQLWLDACPQRENPLIQKLALNMGKQQLIASPEGAMGSLQLRQQVWLHHIVLDKGESANFQLHGPRAYLQSIHGKFHALTHHEEKAALTCGDGAFIRDEANITLVADSPLRALLIDLPV”, the protein production result was “not failed”.

With “MITVVIASRLREDRLDYLTAMHASLTRQSVPWEAVIALDGASPDRLPRQLAQDPRVDTLVLPRPVGAACARNLALTQVRTRYVNWADDDDEFTDDAMSVRLETLESTGVGWCAGWSEDQFRDGSTRLWRCPTPPGRHEAGDVWTFWKSPADTIPIGPTTILARTDLVRAAPMGGLVQGEDYCAALGVTALAPGILLPLPVYRYRKWGGQMTAQDGYDQLETAAREHAWAYGRSLRAVLRGGEDLVHVLEHHHHHH”, the protein production result is “failed”.

For “MIVAFENNVVCSDEKVRDYLLAHHADLKEDQDEDALCLVRLHKEEDIDGTDRVDLAGWREISRELYWTGEQMECNYSIIRFSRKTTSLQMSVVLSTCNQLEWLEKVLWGYEAQDTKNFELIIADDGSRKETYDMLQRITPQLSFQVKHVWHEDKGFRKCDILNKGILAAQADYLLFSDGDCIPRKDFVSTHLCLRRKGRFLSGGYHKLSMDLSKDITKDDILSGRCFDLQWMRGKGMPASFKNNKLTATGFKRWALNTFTPTKASWNGHNASGWLSDILAVNGFDERMQYGGQDREFGERLENYGIHGMQIRYSTVCLHLDHARGYKTKDSIQKNRNIRKHTRGAKVQWASLGIVKDELRGQSVKVNSYYDRYTREEEKLTSYKEKGGFYRHIYSLPCRWRRAKYHDKVVRAYQQDTDAPALSNHSGVIVSLTTFPPRISQLHLMLKSILWQTCPPEKIIVWLSEQEFPGRLNDLPEELKRLMAKGIAFRFVSENFRSHKKYHYVFREYPDSKVITVDDDLIYPRNTVERLLSLSYQYPDTVCGNVIRKIHMDGNSFSVYRKWTKVFTMPVNSSLQNVAIGCGGIYYPPHWYGEELFDWKIISEHCPSADDLWLKANELKRRVKVTGGGEFYPRPIELPQTQNNSLQKKNNGKTNLNDKQWKSLNELWKLDELYCINGK”, the protein production entry was “failed”.

On to “MIVIPMAGMSSRFFKAGYTQPKYMLEAHGQTLFEHSVNSFAAYFASTPFLFIVRNVYDTAVFVREKATQLGIKQFYIAELHTETRGQAETVTLGLEELAKQGVDYQGSITVFNIDTFRPNFVFPDISQHSDGYLEVFQGGGDNWSFAKPEHAGSTKVIQTAEKNPISDLCSTGLYHFNRKEDYLEAYREYVARPSQEWERGELYIAPLYNLLIQKGLNIHYHLIARHEVIFCGVPDEYTDFLRQPQPLEHHHHHH”, for which the protein production entry is “not failed”.

Regarding “MIVRRTIDKDELKELPKTVFPGRIYVIQSEAETEKAVAYLQSRPVIGIDSETRPSFTKGQSHKVALLQISSEECCFLFRLNMTGLTQPLVDLLENPAVIKVGLSLKDDFMMLHKRAPFTQQSCIELQDYVRQFGIQDKSLQKIYAILFKEKISKSQRLSNWEADVLSDGQKQYAATDAWACLNIYNLLQELKQTGDWEVSPLTATVSPAEEVISNKISD”, the protein production result is “failed”.

Consider “MIWNIDYFCNLRCKSCNAWQGKIFFPEDQIDKHLQEMKNNGIKIVSVTGGEPTLNKNVVDIIRKLKENHFFTHIATNGTNPYVLRKLYPYLDAVTISLDSNIPEEHNAYRGLKIFDTVVSNIKEAKSKVKIVTANMLVTNF”, for which the protein production result is “failed”.

As for “MIYFCHAPNDRAIAEKIYFSLKQTGLTCWIPSQDIMAGQYYVEAIANAIEKSDIVVFIFSSHSNTSIQVIDELQKASSLNKTIIPFCVDRAMPSEPIEHYLSSPYKVDATIGLPDDNIAKLQNIIKQIYNQSSVHNANDINTVKDTFAPSNPLENNTNIIKDASDNNSQESIQFNGVINSANSQPPQNPNLPPQHQMNPNFNNTVNNMDRNMNYPIKQNVRPNPQVKSSNKIKIPLIIGGSIAGGIILLSILFMLGKNLLFSTLINSHRPSDNPVIGSNIRIDGSKYTEEEIIEFTKNAILELDRLQASREFYDTYAYNAPEYDLMRIQENVFFSLMDLDVVRFEEVAILGKNEKEHGIEYLLKVDFVCYADYEYTENNETVHRKGEALLYNNVVILETPNDGLKYLYMEGIFEDELNARNENLESSYREIAESGDVNTEDTIQTYLPDSTDEDTIMSVKDIVKKNDHKVVAVYVDVPGGQSQGSGFFIKDGVIVTNYHVIEGGKSAKILLSNGNYVDVEGVLYTDSDVDIAVLKLVNEVGIEPVTIGQARDSDKGSIAVAIGSPLGLFNTVSTGIISNFWEANGVNLIQISIPITHGNSGGALFNESGKLIGITSSGIGEANLNFAISSTHIIPICEDIKNIPYNQLNAVPLSSAGGNINSITRQAGSSNSNQSSSSGKSLLSSKYRFVNSDKPISNDATYTSDLQTIYDLALNKYYAKEDLYRDLDYAFDYILDYGTKYYLEYLEYILHETYIKEDVENFNKINESVLEVLNTTGEYIEFTADEIEIIGAGIKNDGTIDGIIVRALFYENSEPYVRSKFYFRANYDAWSYVDGFLYVGEVTEK”, the protein production result is “failed”.

On to “MIYGILSKNLGMPTPTFLVCPDVVKFENVGQIAVVNGMVYLGGSVGIDKSGTLHKGLEEQTRQTFDNIRKCLEYANSGLDYIVSLNIFLSTSLSDSEEARFNELYREVFCVPATRPCRCCVRAQLQEGLLVEVVNVVAAQK”, for which the protein production entry is reported as “not failed”.

With “MIYLAITTLIWAFSFGLIGNALKGLDPLQIADTRLLLALIAFIPFMKFGNTNGKEKRQLILLGALQYGVMYTCYLSAFRYLPSHLVALFSVLTPLYIVIINDLRQRSFTPWYLVATVLSVFGAAIIKMGNIDSNEIWLGFGLMQVANLAFAFGQVYYRDWKRSRAHITDSSIFGFLYLGAAIFTTIATLLISHQPPIPLNATPTQWFVLVYMGIIASGLCFFLWNKGGTQTSVGVLATFNNAVVPLAMFASLFIFGEAKGGTPEELVRLTIGSLLIVSALLIAKRK”, the protein production entry is reported as “failed”.

For the sequence “MIYLFLALLSYACTYCLVGLLIQGQLADVAEGLRHRPDAPTPGEYLREVGPRARQARRQYTLIAGSVLAVLACLIASGFG”, the protein production result is listed as “failed”.

As for “MIYLHAIDPIAFSLGPVQVHWYGLMYLAAFFSAWALGRSRILRGRLPGVDMDGFSDLLFYGMLGVVLGGRIGYMLFYAFETFLANPLILFKVWEGGMSFHGGLLGVLIACWLWARKHRLHFFDVMDFVAPLVPLGLGFGRLGNFVGGELWGKFTQAGWGVIFPHAPELADRLPAQIQAQYAAGALNQFARHPSQLYEAALEGVVMFVVLWTFSMKPRARYAVSGLFALLYGVFRFIVEFVRVPDAPIGYLAFNWLTMGQILSLPLVAVGLVLLAMSRRAPVLQPVLPVPAGVEAAK”, the protein production result is reported as “failed”.

In the case of “MIYLLLGAVIITFLLWPRGRALLKGDGWRVGAGAAAIAAFAVAAYATIRGAWGTGIVLGVIGLWSVTEARRRPIVRREVVHPPKPELSLSEARAILGVGPEASLAEVKAAYNRLIQMAHPDKGGTEGLAAQLNAARDRLIKPRGSARVEP”, the protein production result is given as “failed”.

As to “MIYWLYLAVFFLLSALDAKEIAMQRFDKQNHKIFEILADKVSAKDNVITASGNAILLNYDVYILADKVRYDTKTKEALLEGNIKVYRGEGLLVKTDYVKLSLNEKYEIIFPFYVQDSVSGIWVSADIASGKDQKYKVKNMSTSGCSIDNPIWHVNATSGSFNMQKSHLSMWNPKIYVGDIPVLYLPYIFMSTSNKRTTGFLYPEFGTSNLDGFIYLQPFYLAPKNSWDMTFTPQIRYKRGFGLNFEARYINSKNDRFLFNARYFRNYTQYVKRYDLRNQNIYGFEFLSSSRDTLQKYFHLKSNIDNGHYIDFLYMNDLDYVRFEKVNKRITDATHMSRANYYLQTENNYYGLNIKYFLNLNKINNNRTFQSVPNLQYHKYLNSLYFRNLLYSVDYQFRNTAREIGYGYVQNALNVPVGLQFSLFKKYLSLGLWNDLQLSNVALMQSKNSFVPTIPNESREFGNFVSSNFSMYVNTDLAREYNKLFHTIQLEAIFNIPYYTFKNGLFSQNMYALSAQALNSYTSPLLRDYDYQGRLYDSVWNPSSILPSNASNKTVDLTLTQYLYGLGGQELLYFKISQLINLDDKVSPFRMPLESKIGFSPLTGLNIFGNVFYSFYQNRLEEISVNANYQRKFLSFNLSYFLKNNFSSGINSIVENLRII”, the protein production entry is reported as “failed”.
